From patent US10869832B2, “Substance delivery device and substance delivery method using the same” (priority 2013, dated 2020)

System: OVA-specific IgG
Assay: OVA-specific IgG by ELISA after single-dose immunization
Format: in vivo
Conditions: SD rats, two weeks after injection, single dose (IM 500 μg OVA, MN 200 μg OVA)
Method: 4-week-old SD rats are divided into four groups. Rats of the first three groups are injected with saline, OVA, and chitosan hydrogel loaded with OVA by intramuscular inoculation, respectively. The fourth group is administrated with OVA through the microneedle patch of the present embodiment. In detail, the SD rat is weighed, anesthetized, and shaved. 200 μl of saline is injected into the thigh of each SD rat of the first group (“IM saline” group). 500 μg of OVA in the same volume are injected into the thigh of each SD rat of the second group (“IM-OVA” group). 200 μl of chitosan hydrogel loaded with 500 μg of OVA (mixed in the same ratio as the microneedle patch) are injected into the thigh of each SD rat of the third group (“IM-OVA+CS” group). A microneedle patch encapsulating 200 μg of OVA is applied the each SD rat of the fourth group (“MN-OVA” group). The blood of each SD rat of each group sampled at the 0, 2nd and 4th week after injection is centrifuged for 5 minutes at 3000 rpm to separate serum from blood cells in the plasma. IgG levels in the collected serum are then evaluated by ELISA.

B1: IM-OVA: 500 μg of OVA (ovalbumin) injected intramuscularly (protein, UniProt P01012 2-386, looked up)
Ovalbumin: GSIGAASMEFCFDVFKELKVHHANENIFYCPIAIMSALAMVYLGAKDSTRTQINKVVRFDKLPGFGDSIEAQCGTSVNVHSSLRDILNQITKPNDVYSFSLASRLYAEERYPILPEYLQCVKELYRGGLEPINFQTAADQARELINSWVESQTNGIIRNVLQPSSVDSQTAMVLVNAIVFKGLWEKAFKDEDTQAMPFRVTEQESKPVQMMYQIGLFRVASMASEKMKILELPFASGTMSMLVLLPDEVSGLEQLESIINFEKLTEWTSSNVMEERKIKVYLPRMKMEEKYNLTSVLMAMGITDVFSSSANLSGISSAESLKISQAVHAAHAEINEAGREVVGSAEAGVDAASVSEEFRADHPFLFCIKHIATNAVLFFGRCVSP
- OVA-specific IgG level: much lower than the MN-OVA and IM-OVA+CS group
